{"source": "patent US20230212268A1", "about": "(UNM RAINFOREST INNOVATIONS, published 2023)", "binders": {"B1": {"name": "EbovGPscFv27-5 (scFv)", "scFv": "MAWSHPQFEKTGSGQVQLQQSGAELVKPGASVKSSCTATGFNIKDYYIHWVKQRTEQGLEWIGRIDPEDGETKYAPKFQGKATITADISPNTAYLQPSSLTSEDTAVYYCTRGGYYGPWYFDVWGTGTTVTVSSGGGGSGGGGSGGGGSGGGGSASLSVSVGETVTITCRASENIYSYLAWYQQKQGKSPQLLVYNAKTLAEGVPSRFSGSGSGTQFSLKINNLQPEDFGSYYCQRHYDTPYTFGGGTKLEIKRADAAPTVSIFPPSSEQLTSGGASVVCFLNNFTHCQELQQDECS"}, "B2": {"name": "EbovGPscFv22-1 (scFv)", "scFv": "MAWSHPQFEKTGSGQVQLQQPGTELVKPGASVKLSCKASGYTFTSYWMHWVKQRPGQGLEWIGNTNPSNGGTNYNEKFKSKATLTVDKSSNTAYMQLSSLTSEDSAVYYCARSVSGNFAYWGQGTLVTVSAGGGGSGGGGSGGGGSGGGGSLSLPVSLGDQASISCRSSQSLVHSNGNTYLHWYLQKPGQSPKLLIYKVSNRFSGVPDRFSGSGSGTDFTLKISRVEAEDLGVYFCSQSTHVPWTFGGGTKLEIKRADAAPTVSIFPPSSEQLTSGGASVVCFLNNFTHCQELQQDECS"}, "B3": {"name": "EbovGPscFv35-2 (scFv)", "scFv": "MAWSHPQFEKTGSGDVKLQESGPGLVKPSQSLSLTCSVTGYSITSGYYWNWIRQFPGNKLEWMGYISYDGSNNYNPSLKNRISITRDTSKNQFFLKLNSVTTEDTATYYCARESPYYGSSHWYFGVWGTGTTVTVSSGGGGSGGGGSGGGGSGGGGSASLSASVGETVTITCRTSENIYSYLAWYQQKQGKSPQLLVYNAKTLAEGVPSRFSGSGSGTQFSLKINSLQPEDFGSYYCQHHYGIPPWTFGGGTKLEIKRADAAPTVSIFPPSSEQLTSGGASVVCFLNNFTHCQELQQDECS"}, "B4": {"name": "EbovGPscFv13-1 (scFv)", "scFv": "MAWSHPQFEKTGSGQVQLQQSGAELVKPGASVKLSCKASGYTFTEYTIHWVKQRSGQGLEWIGWFYPGSGSIKYDEKFKDKATLTADKSSSTVYMELSRLTSEDSAVYFCARHEPYYYGSSYEGPFDYWGQGTTLTVSSGGGGSGGGGSGGGGSGGGGSSPLSVSAGEKVTMSCKSSQSLLNSGNQKNYLAWYQQKPGQPPKLLIYGASTRESGVPDRFTGSGSGTDFTLTISSVQAEDLAVYYCQNDHSYPLTFGAGTKLELKRADAAPTVSIFPPSSEQLTSGGASVVCFLNNFTHCQELQQDECS"}, "B5": {"name": "EbovGPscFv16-1 (scFv)", "scFv": "MAWSHPQFEKTGSGGAELVRSGASVKLSCTASGFNIKDDYMHWVKQRPEQGLKWIGWIDPENGDTEYASKLQGKATITADTSSNTAYLQLSSLTSEDTAVYYCARPIYYYGSSHWYFDVWGTGTTVTVSSGGGGSGGGGSGGGGSGGGGSLSLPVSLGDQASISCRSSQSLVHSNGNTYLHWYLQKPGQSPKLLIYKVSNRFSGVPDRFSGSGSGTDFTLKISRVEAEDLGVYFCSQSTHVPWTFGGGTKLEVKRADAAPTVSIFPPSSEQLTSGGASVVCFLNNFTHCQELQQDECS"}}, "key": {"[1]": {"target": "T1, recombinant SUDV glycoprotein (SUDV (Sudan ebolavirus), UniProt Q7T9D9 33-650)", "T1 sequence": "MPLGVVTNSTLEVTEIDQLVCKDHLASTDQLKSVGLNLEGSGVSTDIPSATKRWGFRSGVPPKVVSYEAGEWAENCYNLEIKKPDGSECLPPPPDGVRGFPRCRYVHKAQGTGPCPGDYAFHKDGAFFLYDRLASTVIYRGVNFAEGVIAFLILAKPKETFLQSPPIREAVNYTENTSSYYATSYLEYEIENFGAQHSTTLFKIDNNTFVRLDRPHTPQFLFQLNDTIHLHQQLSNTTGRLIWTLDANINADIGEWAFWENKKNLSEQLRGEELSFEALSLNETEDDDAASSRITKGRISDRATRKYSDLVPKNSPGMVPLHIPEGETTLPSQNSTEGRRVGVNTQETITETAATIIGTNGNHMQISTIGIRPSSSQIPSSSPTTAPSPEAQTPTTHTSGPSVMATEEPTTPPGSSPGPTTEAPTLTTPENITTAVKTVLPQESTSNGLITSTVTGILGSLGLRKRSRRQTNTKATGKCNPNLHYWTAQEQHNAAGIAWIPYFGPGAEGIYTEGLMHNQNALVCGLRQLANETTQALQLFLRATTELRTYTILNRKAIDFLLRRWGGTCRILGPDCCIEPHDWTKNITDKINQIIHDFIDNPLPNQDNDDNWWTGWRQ", "assay": "ELISA, GP coated"}, "[2]": {"target": "T2, recombinant RESTV glycoprotein (RESTV (Reston ebolavirus), UniProt Q66799 34-651)", "T2 sequence": "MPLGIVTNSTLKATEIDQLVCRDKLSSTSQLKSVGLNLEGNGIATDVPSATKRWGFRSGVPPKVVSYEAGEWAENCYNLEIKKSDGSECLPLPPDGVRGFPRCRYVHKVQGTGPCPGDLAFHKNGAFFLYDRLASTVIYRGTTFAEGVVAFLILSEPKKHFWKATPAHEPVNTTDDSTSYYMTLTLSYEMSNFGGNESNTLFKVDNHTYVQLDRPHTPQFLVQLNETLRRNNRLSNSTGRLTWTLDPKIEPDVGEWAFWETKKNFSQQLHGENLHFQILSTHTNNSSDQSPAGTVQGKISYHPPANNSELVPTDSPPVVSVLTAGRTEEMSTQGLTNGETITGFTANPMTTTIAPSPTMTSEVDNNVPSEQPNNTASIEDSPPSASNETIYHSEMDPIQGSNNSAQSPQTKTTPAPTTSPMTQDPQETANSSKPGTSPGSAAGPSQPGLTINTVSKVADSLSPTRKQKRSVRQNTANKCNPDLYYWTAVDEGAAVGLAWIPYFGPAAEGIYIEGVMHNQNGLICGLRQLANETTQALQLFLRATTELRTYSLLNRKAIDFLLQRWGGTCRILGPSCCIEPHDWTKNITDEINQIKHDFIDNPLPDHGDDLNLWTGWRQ", "assay": "ELISA, GP coated"}, "[3]": {"target": "T3, recombinant TAFV glycoprotein (TAFV (Tai Forest virus), UniProt Q66810 33-650)", "T3 sequence": "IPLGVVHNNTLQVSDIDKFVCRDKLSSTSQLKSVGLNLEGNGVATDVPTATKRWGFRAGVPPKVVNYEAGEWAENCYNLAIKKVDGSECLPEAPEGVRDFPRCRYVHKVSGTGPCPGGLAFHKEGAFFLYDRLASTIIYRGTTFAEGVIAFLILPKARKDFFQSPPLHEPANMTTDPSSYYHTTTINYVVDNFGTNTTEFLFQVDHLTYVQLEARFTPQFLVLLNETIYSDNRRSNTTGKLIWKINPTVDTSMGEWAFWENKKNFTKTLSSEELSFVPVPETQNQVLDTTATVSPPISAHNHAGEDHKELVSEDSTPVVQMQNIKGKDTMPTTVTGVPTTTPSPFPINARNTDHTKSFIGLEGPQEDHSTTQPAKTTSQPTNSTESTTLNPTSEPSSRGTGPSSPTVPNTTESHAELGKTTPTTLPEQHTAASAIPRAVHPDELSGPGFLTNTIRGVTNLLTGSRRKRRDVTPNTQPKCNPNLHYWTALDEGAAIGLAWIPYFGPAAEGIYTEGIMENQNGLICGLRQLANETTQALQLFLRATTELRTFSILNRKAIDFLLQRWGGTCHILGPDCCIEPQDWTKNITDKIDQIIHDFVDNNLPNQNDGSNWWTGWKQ", "assay": "ELISA, GP coated"}, "[4]": {"target": "T4, recombinant MARV glycoprotein (MARV (marburgvirus, Ravn), UniProt Q1PDC7 19-648)", "T4 sequence": "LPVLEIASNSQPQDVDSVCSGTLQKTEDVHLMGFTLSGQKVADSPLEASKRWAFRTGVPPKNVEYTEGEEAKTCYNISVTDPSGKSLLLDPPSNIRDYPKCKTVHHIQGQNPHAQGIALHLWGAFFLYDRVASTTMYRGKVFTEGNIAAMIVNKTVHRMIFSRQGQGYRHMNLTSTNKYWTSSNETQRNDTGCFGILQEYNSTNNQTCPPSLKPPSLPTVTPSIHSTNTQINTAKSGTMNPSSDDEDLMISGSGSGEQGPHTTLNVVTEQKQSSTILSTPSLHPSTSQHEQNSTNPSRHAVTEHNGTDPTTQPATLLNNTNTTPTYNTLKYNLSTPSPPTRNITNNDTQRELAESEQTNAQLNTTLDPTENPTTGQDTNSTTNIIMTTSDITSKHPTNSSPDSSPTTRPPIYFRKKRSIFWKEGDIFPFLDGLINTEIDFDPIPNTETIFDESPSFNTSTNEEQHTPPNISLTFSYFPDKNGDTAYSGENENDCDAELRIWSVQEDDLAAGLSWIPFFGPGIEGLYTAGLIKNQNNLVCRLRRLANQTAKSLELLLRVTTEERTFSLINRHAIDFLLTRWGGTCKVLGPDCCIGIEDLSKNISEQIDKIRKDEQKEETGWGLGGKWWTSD", "assay": "ELISA, GP coated"}, "[5]": {"target": "T3, recombinant TAFV glycoprotein"}, "[6]": {"target": "T5, recombinant EBOV glycoprotein (EBOV (Zaire ebolavirus), UniProt Q05320 33-650)", "T5 sequence": "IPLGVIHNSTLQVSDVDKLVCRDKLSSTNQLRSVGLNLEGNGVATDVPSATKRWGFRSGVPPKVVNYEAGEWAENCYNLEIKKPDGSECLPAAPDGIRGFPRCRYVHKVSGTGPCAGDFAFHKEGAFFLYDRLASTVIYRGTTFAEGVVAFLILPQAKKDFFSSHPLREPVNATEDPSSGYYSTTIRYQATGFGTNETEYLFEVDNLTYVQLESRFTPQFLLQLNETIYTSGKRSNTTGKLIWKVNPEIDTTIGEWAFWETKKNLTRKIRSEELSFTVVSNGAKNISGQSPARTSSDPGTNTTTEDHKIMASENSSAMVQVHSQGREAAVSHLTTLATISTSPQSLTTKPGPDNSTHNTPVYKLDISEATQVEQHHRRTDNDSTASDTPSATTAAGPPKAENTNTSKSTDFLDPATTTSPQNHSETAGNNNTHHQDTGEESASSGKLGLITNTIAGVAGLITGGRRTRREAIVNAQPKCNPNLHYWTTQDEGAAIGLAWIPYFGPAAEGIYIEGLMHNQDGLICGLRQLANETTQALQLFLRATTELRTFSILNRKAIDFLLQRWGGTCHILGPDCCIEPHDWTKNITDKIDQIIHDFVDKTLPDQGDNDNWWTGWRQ", "assay": "ELISA dose response, GP coated"}, "[7]": {"target": "T1, recombinant SUDV glycoprotein", "assay": "ELISA dose response, GP coated"}, "[8]": {"target": "T2, recombinant RESTV glycoprotein", "assay": "ELISA dose response, GP coated"}, "[9]": {"target": "T3, recombinant TAFV glycoprotein", "assay": "ELISA dose response, GP coated"}, "[10]": {"target": "T4, recombinant MARV glycoprotein", "assay": "ELISA dose response, GP coated"}, "[11]": {"target": "T5, recombinant EBOV glycoprotein", "assay": "maximal binding from ELISA dose-response fit"}, "[12]": {"target": "T1, recombinant SUDV glycoprotein", "assay": "maximal binding from ELISA dose-response fit"}, "[13]": {"target": "T2, recombinant RESTV glycoprotein", "assay": "maximal binding from ELISA dose-response fit"}, "[14]": {"target": "T3, recombinant TAFV glycoprotein", "assay": "maximal binding from ELISA dose-response fit"}, "[15]": {"target": "T4, recombinant MARV glycoprotein", "assay": "maximal binding from ELISA dose-response fit"}, "[16]": {"target": "T5, recombinant EBOV glycoprotein", "assay": "ELISA, GP coated"}}, "note": "Several values for one entry are separate records, joined by “and”; a condition that tells them apart may be missing. Identical values can stand only once. Like-named read-outs stand apart in the source and are kept apart here.", "data": [{"binder": "B1", "values": [{"measurement": "binding result", "setting": "[1]", "result": "no binding"}, {"measurement": "binding result", "setting": "[2]", "result": "no binding"}, {"measurement": "binding result", "setting": "[3]", "result": "no binding"}, {"measurement": "binding result", "setting": "[4]", "result": "no binding"}]}, {"binder": "B2", "values": [{"measurement": "EC50", "setting": "[5]", "result": 12, "unit": "µg/mL"}, {"measurement": "EC50", "setting": "[6]", "result": "< 12 µg/mL and 7.36 µg/mL"}, {"measurement": "EC50", "setting": "[7]", "result": "< 12 µg/mL and 7.94 µg/mL"}, {"measurement": "EC50", "setting": "[8]", "result": "9 µg/mL and < 12 µg/mL"}, {"measurement": "EC50", "setting": "[9]", "result": "11.6 µg/mL and < 12 µg/mL"}, {"measurement": "EC50", "setting": "[10]", "result": "< 12 µg/mL and 6.58 µg/mL"}, {"measurement": "Bmax signal", "setting": "[11]", "result": 370000, "unit": "relative absorbance units"}, {"measurement": "Bmax signal", "setting": "[12]", "result": 280000, "unit": "relative absorbance units"}, {"measurement": "Bmax signal", "setting": "[13]", "result": 320000, "unit": "relative absorbance units"}, {"measurement": "Bmax signal", "setting": "[14]", "result": 270000, "unit": "relative absorbance units"}, {"measurement": "Bmax signal", "setting": "[15]", "result": 250000, "unit": "relative absorbance units"}]}, {"binder": "B3", "values": [{"measurement": "binding result", "setting": "[16]", "result": "binds"}]}, {"binder": "B4", "values": [{"measurement": "binding result", "setting": "[16]", "result": "binds"}]}, {"binder": "B5", "values": [{"measurement": "binding result", "setting": "[16]", "result": "binds"}]}]}
